Measurements taken from US20260217860A1 (BIOCYTOGEN PHARMACEUTICALS BEIJING, published 2026).

B1: E-9A6-M-11E8 (bispecific antibody)
heavy 1: not shown
heavy 2: QVQLVQSGGGVVQPGRSLRLSCAASGFTFSSYAMHWVRQAPGKGLEWVAVISDDGINKYYADSVKGRFTISRDNSKNTLYLQMNSLRAEDSAVYYCARALPTIFGVVMYFYYGLDVWGQGTTATVSSASTKGPSVFPLAPSSKSTSGGTAALGCLVKDYFPEPVTVSWNSGALTSGVHTFPAVLQSSGLYSLSSVVTVPSSSLGTQTYICNVNHKPSNTKVDKKVEPKSCDKTHTCPPCPAPELLGGPSVFLFPPKPKDTLMISRTPEVTCVVVDVSHEDPEVKFNWYVDGVEVHNAKTKPREEQYNSTYRVVSVLTVLHQDWLNGKEYKCKVSNKALPAPIEKTISKAKGQPREPQVCTLPPSREEMTKNQVSLSCAVKGFYPSDIAVEWESNGQPENNYKTTPPVLDSDGSFFLVSKLTVDKSRWQQGNVFSCSVMHEALHNHYTQKSLSLSPGK
light: not shown
notes: Knobs-into-holes bispecific with a common light chain; also called anti-EGFR/MUC1 bispecific antibody
B2: E-9F3-M-11E8 (bispecific antibody)
heavy 1: not shown
heavy 2: B1 heavy 2
light: not shown
notes: as for B1
B3: E-9D2-M-11E8 (bispecific antibody)
heavy 1: not shown
heavy 2: B1 heavy 2
light: not shown
notes: as for B1
B4: E-6C4-M-11E8 (bispecific antibody)
heavy 1: not shown
heavy 2: B1 heavy 2
light: not shown
notes: as for B1
B5: E-9H2-M-11E8 (bispecific antibody)
heavy 1: not shown
heavy 2: B1 heavy 2
light: not shown
notes: Knobs-into-holes bispecific with a common light chain; also called anti-EGFR/MUC1 bispecific antibody; E-9H2-M-llE8

These binders were tested against T1, His-tagged human MUC1 protein hMUC1(24-1158)-His (human, UniProt P15941 24-1158) (assay: SPR, Biacore 8K, 1:1 fit;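 also: His-tagged targets captured on the chip at roughly 100 RU, antibody analytes flowed at 1 µg/mL in HBS-EP+ pH 7.4, 50 s association, 400 s dissociation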).
T1 construct: not shown: His tag
B1 showed a Kd of 17.3 nM, a koff of 0.00137 s⁻¹ and a kon of 79100 M⁻¹ s⁻¹.
With B2 the Kd was 5.24 nM, the koff was 0.000543 s⁻¹ and the kon was 104000 M⁻¹ s⁻¹.
Work on B3 yielded a Kd of 5.97 nM, a koff of 0.000554 s⁻¹ and a kon of 92700 M⁻¹ s⁻¹.
B4 gave a Kd of 6.21 nM, a koff of 0.000575 s⁻¹ and a kon of 92700 M⁻¹ s⁻¹.
B5 showed a Kd of 25.4 nM, a koff of 0.0101 s⁻¹ and a kon of 400000 M⁻¹ s⁻¹.
